Measurements: patent US6462016 (SHISEIDO, dated 2002)

Target: maxadilan (recombinant represented by SEQ ID NO: 2, peptide fragment GSIL- bound to the N-terminal cysteine … (Lutzomyia longipalpis (sand fly), UniProt P30659 24-86))
Experiment: ^125I-Max saturation binding and Scatchard plot, rabbit spleen crude membrane fraction, filtration

B1: maxadilan receptor of the rabbit (maxadilan-specific receptor in crude membrane fractions from rabbit brain and rabbit spleen) (receptor)
chain: MAGVLQVSLAALLLLPAATAMHSDCIFKKEQALCLEKIQRANDLLGLNDSSPGCPGMWDNITCWKPAHVGEMVLVSCPELFRIFNPDQGEFDFAESTSLDLADMGVVSRNCTEDGWSEPFPHYFDACGFDEYESEPGDQDYYYLSVKALYTVGYSTSLVTLTTAMVILCRFRKLHCTRNFIHMNLFVSFMLRAISVFIKDWILYAEQDSNHCFVSTVECKAVMVFFHYCVVSNYFWLFIEGLYLFTLLVETFFPERRYFYWYTMIGWGTPTVCVAVWATLRLYFDDTGCWDMNDSTALWWVIKGPVVASIMVNFVLFIGIIIILVQKLQSPDTGGNESSIYLRLARSTLLLIPLFGIHYTVFAFSPENVSKRERLVFELGLGSFQGFVVAVLYCFLNGEVQAEIKRKWRSWKVNRYFAVDFKHRHPSLASSGVNGGTQLSILSKSSSQLRMSGLPADNLAT
For B1, the Kd was 0.055 nM.
